Source: the FLAb antibody collection (doi:10.7554/elife.23156)

B1: scFv; the commonest letter at each place (parent)
chain 1: EVKLDETGGGLVQPGRPMKLSCVASGFTFSDYWMNWVRQSPEKGLEWVAQIRNKPYNYETYYSDSVKGRFTISRDDSKSSVYLQMNNLRVEDMGIYYCTGSYYGMDYWGQGTSVTVS
chain 2: DVVMTQTPLSLPVSLGDQASISCRSSQSLVHSNGNTYLRWYLQKPGQSPKVLIYKVSNRFSGVPDRFSGSGSGTDFTLKISRVEAEDLGVYFCSQSTHVPWTFGGGTKLEIK

Assays:
fluorescein = variants of: B1; assay: Kd (Tite-Seq); settings: with fluorescein; format: scFv 4-4-20, heavy + light
[1] = variants of: B1; assay: yeast surface expression (ratio to wild type); higher = more expressed; settings: format: scFv 4-4-20, heavy + light

In the case of chain 1 EVKLDETGGGLVQPGRPMKLSCVASGFTFTDYWMQWVRQSPEKGLEWVAQIRNKPYNYETYYSDSVKGRFTISRDDSKSSVYLQMNNLRVEDMGIYYCTGSYYGMDYWGQGTSVTVS chain 2 DVVMTQTPLSLPVSLGDQASISCRSSQSLVHSNGNTYLRWYLQKPGQSPKVLIYKVSNRFSGVPDRFSGSGSGTDFTLKISRVEAEDLGVYFCSQSTHVPWTFGGGTKLEIK [chain 1 S30T N35Q], the Kd (fluorescein) is reported as no less than 10 µM and the yeast surface expression [1] is reported as 0.831.

chain 1 EVKLDETGGGLVQPGRPMKLSCVASGFTFSDYFMNWVRQSPEKGLEWVAQIRNKPYNYETYYSDSVKGRFTISRDDSKSSVYLQMNNLRVEDMGIYYCTGSYYGMDYWGQGTSVTVS chain 2 DVVMTQTPLSLPVSLGDQASISCRSSQSLVHSNGNTYLRWYLQKPGQSPKVLIYKVSNRFSGVPDRFSGSGSGTDFTLKISRVEAEDLGVYFCSQSTHVPWTFGGGTKLEIK [chain 1 W33F] gave a Kd (fluorescein) of 0.0412 µM and a yeast surface expression [1] of 0.902.

For chain 1 EVKLDETGGGLVQPGRPMKLSCVASGFTFSDYWMNWVRQSPEKGLEWVAQIRNKPYNYETYYSDSVKGRFTISRDDSKSSVYLQMNNLRVEDMGIYYCTMIYYTMDYWGQGTSVTVS chain 2 DVVMTQTPLSLPVSLGDQASISCRSSQSLVHSNGNTYLRWYLQKPGQSPKVLIYKVSNRFSGVPDRFSGSGSGTDFTLKISRVEAEDLGVYFCSQSTHVPWTFGGGTKLEIK [chain 1 G100M S101I G104T], the Kd (fluorescein) was no less than 10 µM and the yeast surface expression [1] was 0.359.

chain 1 EVKLDETGGGLVQPGRPMKLSCVASGFTFSDYWMNWVRQSPEKGLEWVAQIRNKPYNYETYYSDSVKGRFTISRDDSKSSVYLQMNNLRVEDMGIYYCTGSWYGMDYWPQGTSVTVS chain 2 DVVMTQTPLSLPVSLGDQASISCRSSQSLVHSNGNTYLRWYLQKPGQSPKVLIYKVSNRFSGVPDRFSGSGSGTDFTLKISRVEAEDLGVYFCSQSTHVPWTFGGGTKLEIK [chain 1 Y102W G109P] gave a Kd (fluorescein) of no less than 10 µM and a yeast surface expression [1] of 0.245.

Work on chain 1 EVKLDETGGGLVQPGRPMKLSCVASGFTFSDYIMWWVRQSPEKGLEWVAQIRNKPYNYETYYSDSVKGRFTISRDDSKSSVYLQMNNLRVEDMGIYYCTGSYYGMDYWGQGTSVTVS chain 2 DVVMTQTPLSLPVSLGDQASISCRSSQSLVHSNGNTYLRWYLQKPGQSPKVLIYKVSNRFSGVPDRFSGSGSGTDFTLKISRVEAEDLGVYFCSQSTHVPWTFGGGTKLEIK [chain 1 W33I N35W] yielded a Kd (fluorescein) of no less than 10 µM and a yeast surface expression [1] of 0.803.

In the case of chain 1 EVKLDETGGGLVQPGRPMKLSCVASGFTFSDYWRNPVRQSPEKGLEWVAQIRNKPYNYETYYSDSVKGRFTISRDDSKSSVYLQMNNLRVEDMGIYYCTGSYYGMDYWGQGTSVTVS chain 2 DVVMTQTPLSLPVSLGDQASISCRSSQSLVHSNGNTYLRWYLQKPGQSPKVLIYKVSNRFSGVPDRFSGSGSGTDFTLKISRVEAEDLGVYFCSQSTHVPWTFGGGTKLEIK [chain 1 M34R W36P], the Kd (fluorescein) is reported as no less than 10 µM and the yeast surface expression [1] is reported as 1.27.

With chain 1 EVKLDETGGGLVQPGRPMKLSCVASGFTFSDYWMNWVRQSPEKGLEWVAQIRNKPYNYETYYSDSVKGRFTISRDDSKSSVYLQMNNLRVEDMGIYYCTGSEIGMDYWGQGTSVTVS chain 2 DVVMTQTPLSLPVSLGDQASISCRSSQSLVHSNGNTYLRWYLQKPGQSPKVLIYKVSNRFSGVPDRFSGSGSGTDFTLKISRVEAEDLGVYFCSQSTHVPWTFGGGTKLEIK [chain 1 Y102E Y103I] the Kd (fluorescein) was no less than 10 µM and the yeast surface expression [1] was 0.862.

Work on chain 1 EVKLDETGGGLVQPGRPMKLSCVASGFTFSDYWMNWVRQSPEKGLEWVAQIRNKPYNYETYYSDSVKGRFTISRDDSKSSVYLQMNNLRVEDMGIYYCTGSEYGMDYWNQGTSVTVS chain 2 DVVMTQTPLSLPVSLGDQASISCRSSQSLVHSNGNTYLRWYLQKPGQSPKVLIYKVSNRFSGVPDRFSGSGSGTDFTLKISRVEAEDLGVYFCSQSTHVPWTFGGGTKLEIK [chain 1 Y102E G109N] yielded a Kd (fluorescein) of no less than 10 µM and a yeast surface expression [1] of 0.382.

In the case of chain 1 EVKLDETGGGLVQPGRPMKLSCVASGFTFSDYWMNWVRQSPEKGLEWVAQIRNKPYNYETYYSDSVKGRFTISRDDSKSSVYLQMNNLRVEDMGIYYCTGSYYGMIYRGQGTSVTVS chain 2 DVVMTQTPLSLPVSLGDQASISCRSSQSLVHSNGNTYLRWYLQKPGQSPKVLIYKVSNRFSGVPDRFSGSGSGTDFTLKISRVEAEDLGVYFCSQSTHVPWTFGGGTKLEIK [chain 1 D106I W108R], the Kd (fluorescein) is reported as no less than 10 µM and the yeast surface expression [1] is reported as 0.422.

With chain 1 EVKLDETGGGLVQPGRPMKLSCVASGFYTSDYTMNWVRQSPEKGLEWVAQIRNKPYNYETYYSDSVKGRFTISRDDSKSSVYLQMNNLRVEDMGIYYCTGSYYGMDYWGQGTSVTVS chain 2 DVVMTQTPLSLPVSLGDQASISCRSSQSLVHSNGNTYLRWYLQKPGQSPKVLIYKVSNRFSGVPDRFSGSGSGTDFTLKISRVEAEDLGVYFCSQSTHVPWTFGGGTKLEIK [chain 1 T28Y F29T W33T] the Kd (fluorescein) was no less than 10 µM and the yeast surface expression [1] was 0.745.

With chain 1 EVKLDETGGGLVQPGRPMKLSCVASGFTFSDYWMNWVRQSPEKGLEWVAQIRNKPYNYETYYSDSVKGRFTISRDDSKSSVYLQMNNLRVEDMGIYYCTGSYYGTDYWVQGTSVTVS chain 2 DVVMTQTPLSLPVSLGDQASISCRSSQSLVHSNGNTYLRWYLQKPGQSPKVLIYKVSNRFSGVPDRFSGSGSGTDFTLKISRVEAEDLGVYFCSQSTHVPWTFGGGTKLEIK [chain 1 M105T G109V] the Kd (fluorescein) was no less than 10 µM and the yeast surface expression [1] was 0.216.

Work on chain 1 EVKLDETGGGLVQPGRPMKLSCVASGFTFADYWMNWRRQSPEKGLEWVAQIRNKPYNYETYYSDSVKGRFTISRDDSKSSVYLQMNNLRVEDMGIYYCTGSYYGMDYWGQGTSVTVS chain 2 DVVMTQTPLSLPVSLGDQASISCRSSQSLVHSNGNTYLRWYLQKPGQSPKVLIYKVSNRFSGVPDRFSGSGSGTDFTLKISRVEAEDLGVYFCSQSTHVPWTFGGGTKLEIK [chain 1 S30A V37R] yielded a Kd (fluorescein) of 0.00871 µM and a yeast surface expression [1] of 1.16.
